For this assay, the target named is p53-binding domain of human MdmX (N-MdmX, amino acids 22-110) (human) (UniProt O15151). Nature of the assay: ITC; ITC-200 at 25 °C; 19 injections of 2.0 µL of ~0.2 mM ligand into ~10–20 µM protein in the cell; one-set-of-binding-sites model.

pKd: −log10 of the molar value.

Sequence of p53-binding domain of human MdmX (N-MdmX, amino acids 22-110) (human) (O15151 22-110): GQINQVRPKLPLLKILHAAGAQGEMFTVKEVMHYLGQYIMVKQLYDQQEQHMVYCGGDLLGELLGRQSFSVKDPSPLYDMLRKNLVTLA

For the substance “p53 transactivation domain peptide (p53p)”, the pKd (in general, −log10 of the Kd, conventionally taken in molar units) was 6.44.

These data come from publication PMC8885691, “Leveraging the multivalent p53 peptide-MdmX interaction to guide the improvement of small molecule inhibitors” (Nature Communications, 2022).
